The text below walks through data of patent publication US20230287082A1 (published 2023).

Sequences and labels used below:
B1: ΔB7-H6_S3#27-SEED-PGLALA (bispecific antibody, part only; not given: SEED Fc chains and hu225 EGFR Fab, part only)
chain, part: DLKVEMMAGGTQITPLNDNVTIFCNIFYSQPLNITTMGITWFWKSLTFDKEVKVFEFWGDHQEAFRPGAIVSPWRLKSGDASLRLPGIQLEEAGEYRCEVIVTPYKAQGTVQLEVVASPAS
B2: ΔB7-H6_S3#1-SEED-PGLALA (bispecific antibody, part only; not given: SEED Fc chains and hu225 EGFR Fab, part only)
chain, part: B1 chain, part with I101V
B3: ΔB7-H6_S3#24-SEED-PGLALA (bispecific antibody, part only; not given: SEED Fc chains and hu225 Fab, part only)
chain, part: B1 chain, part with T36I, W58Y, I101V
B4: ΔB7-H6_S3#10-SEED-PGLALA (bispecific antibody, part only; not given: SEED Fc chains and hu225 Fab, part only)
chain, part: B1 chain, part with T36S, W58Y, I101F
B5: ΔB7-H6_S3#11-SEED-PGLALA (bispecific antibody, part only; not given: SEED Fc chains and hu225 Fab, part only)
chain, part: B1 chain, part with T36L, Y105F
B6: ΔB7-H6_S3#6-SEED-PGLALA (bispecific antibody, part only; not given: SEED Fc chains and hu225 Fab, part only)
chain, part: B1 chain, part with T36H, I101V
B7: ΔB7-H6_S3#19-SEED-PGLALA (bispecific antibody, part only; not given: SEED Fc chains and hu225 Fab, part only)
chain, part: B1 chain, part with T36Q, I101V
B8: ΔB7-H6_S3#7-SEED-PGLALA (bispecific antibody, part only; not given: SEED Fc chains and hu225 Fab, part only)
chain, part: B1 chain, part with T36H, W58Y, I101V
B9: ΔB7-H6_S3#12-SEED-PGLALA (bispecific antibody, part only; not given: SEED Fc chains and hu225 Fab, part only)
chain, part: B1 chain, part with T36E, W58F, I101V
B10: ΔB7-H6_S3#21-SEED-PGLALA (bispecific antibody, part only; not given: SEED Fc chains and hu225 Fab, part only)
chain, part: B1 chain, part with T36L, I101V
B11: ΔB7-H6_S3#3-SEED-PGLALA (bispecific antibody, part only; not given: SEED Fc chains and hu225 Fab, part only)
chain, part: B1 chain, part with T36H, W58F, I101F
B12: ΔB7-H6_S3#5-SEED-PGLALA (bispecific antibody, part only; not given: SEED Fc chains and hu225 Fab, part only)
chain, part: B1 chain, part with T36V, I101V
B13: ΔB7-H6_S3#8-SEED-PGLALA (bispecific antibody, part only; not given: SEED Fc chains and hu225 EGFR Fab, part only)
chain, part: B1 chain, part with T36H, Y105L
B14: ΔB7-H6_S3#9-SEED-PGLALA (bispecific antibody, part only; not given: SEED Fc chains and hu225 EGFR Fab, part only)
chain, part: B1 chain, part with T36H, W58F, I101V
B15: ΔB7-H6_S3#29-SEED-PGLALA (bispecific antibody, part only; not given: SEED Fc chains and hu225 EGFR Fab, part only)
chain, part: B1 chain, part with T36V
B16: ΔB7-H6_S3#17-SEED-PGLALA (bispecific antibody, part only; not given: SEED Fc chains and hu225 EGFR Fab, part only)
chain, part: B1 chain, part with T36S, W58Y, I101F, Y105L
B17: ΔB7-H6_S3#16-SEED-PGLALA (bispecific antibody, part only; not given: SEED Fc chains and hu225 Fab, part only)
chain, part: B1 chain, part with T36L, W58Y, I101V
B18: ΔB7-H6_S3#18-SEED-PGLALA (bispecific antibody, part only; not given: SEED Fc chains and hu225 Fab, part only)
chain, part: B1 chain, part with T36Y, I101V

Residue numbers refer to the chain shown, from its start.

Chain of NKp30 on human NK cells (human) (O14931 19-201): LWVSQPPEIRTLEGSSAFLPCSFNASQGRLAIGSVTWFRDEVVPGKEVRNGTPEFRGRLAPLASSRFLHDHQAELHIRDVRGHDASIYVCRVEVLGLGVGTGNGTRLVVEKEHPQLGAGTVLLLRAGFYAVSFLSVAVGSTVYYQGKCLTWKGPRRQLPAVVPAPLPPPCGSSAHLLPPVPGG

One test has as its target NKp30 on human NK cells (human) (UniProt O14931). Description: cell-based or functional assay.
The molecule B1 had an A431 EC50 with PBMC (pM) of 60.2 pM; an A549 EC50 with PBMC (pM) of 356 pM; an EC50 (pM), A431 lysis with PBMC of 19.2 pM; an EC50 improvement compared to ΔB7-H6 wt of 45 fold. This molecule also had an EC50 of tumor cell lysis, initial screening of 0.0276 nM and an improved potency compared to wild-type ΔB7-H6, initial screening of 41 fold.
With B2, the EC50 (pM), A431 lysis with PBMC turned out to be 61.1 pM and the EC50 improvement compared to ΔB7-H6 wt turned out to be 14 fold.
In the case of B3, the A431 EC50 with NK cells (pM) is 3.55 pM, the A431 EC50 with PBMC (pM) is 39.7 pM, the A549 EC50 with NK cells (pM) worked out at 35.2 pM and the A549 EC50 with PBMC (pM) worked out at 108 pM. Besides, the EC50 (pM), A431 lysis with PBMC amounted to 9.3 pM and the EC50 improvement compared to ΔB7-H6 wt came out at 93 fold.
Regarding B4, the EC50 (pM), A431 lysis with PBMC was found to be 85 pM and the EC50 improvement compared to ΔB7-H6 wt was found to be 10 fold.
The like results for B5 were, in that order, 65.8 pM and 13 fold.
The like results for B6 were, in that order, 40.8 pM and 21 fold.
The like results for B7 were, in that order, 240 pM and 4 fold.
Consider B8, for which the EC50 (pM), A431 lysis with PBMC was determined as 45.4 pM and the EC50 improvement compared to ΔB7-H6 wt came to 19 fold.
In turn, B9 registered an EC50 (pM), A431 lysis with PBMC of 165 pM and an EC50 improvement compared to ΔB7-H6 wt of 5 fold.
The like results for B10 were, in that order, 36.1 pM and 24 fold.
Take B11: the EC50 (pM), A431 lysis with PBMC stood at 110 pM and the EC50 improvement compared to ΔB7-H6 wt turned out to be 8 fold.
The like results for B12 were, in that order, 54.7 pM and 16 fold.
The like results for B13 were, in that order, 43.7 pM and 20 fold.
The like results for B14 were, in that order, 64 pM and 14 fold.
Regarding B15, the A431 EC50 with PBMC (pM) was 33.6 pM; the A549 EC50 with PBMC (pM) was found to be 172 pM; the EC50 (pM), A431 lysis with PBMC was 7.6 pM; the EC50 improvement compared to ΔB7-H6 wt is 114 fold.
In the case of B16, the EC50 (pM), A431 lysis with PBMC was found to be 427 pM and the EC50 improvement compared to ΔB7-H6 wt was 2 fold.
The molecule B17 showed an A431 EC50 with PBMC (pM) of 87.3 pM; an A549 EC50 with PBMC (pM) of 206 pM; an EC50 (pM), A431 lysis with PBMC of 29.1 pM; an EC50 improvement compared to ΔB7-H6 wt of 30 fold.
B18 registered an A431 EC50 with NK cells (pM) of 4.31 pM, an A431 EC50 with PBMC (pM) of 51.1 pM, an A549 EC50 with NK cells (pM) of 42.5 pM and an A549 EC50 with PBMC (pM) of 132 pM. The same molecule showed an EC50 (pM), A431 lysis with PBMC of 19.8 pM and an EC50 improvement compared to ΔB7-H6 wt of 44 fold.

A further test deals with human NKp30 (human) (UniProt O14931). The test can be described thus: BLI, immunoligand on anti-hFc tip.
Chain of human NKp30 (human) (O14931 19-135 limits assumed): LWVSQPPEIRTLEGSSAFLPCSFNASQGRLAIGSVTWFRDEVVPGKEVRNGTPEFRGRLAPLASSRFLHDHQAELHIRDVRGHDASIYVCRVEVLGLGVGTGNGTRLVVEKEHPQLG
With B1, the Kd (usually a measure of binding affinity in units of concentration) is 83 nM; the koff (as a rule, the rate constant with which the complex falls apart) turned out to be 0.0556 s⁻¹; the kon (usually the second-order rate constant of association) worked out at 669000 M⁻¹ s⁻¹.
The like results for B2 were, in that order, 39.1 nM, 0.0295 s⁻¹ and 754000 M⁻¹ s⁻¹.
On to B3, for which the Kd was 14.9 nM, the koff was 0.0104 s⁻¹ and the kon came to 702000 M⁻¹ s⁻¹.
Molecule B4 registered a Kd of 145 nM, a koff of 0.0998 s⁻¹ and a kon of 689000 M⁻¹ s⁻¹.
The like results for B5 were, in that order, 39.1 nM, 0.0432 s⁻¹ and 1.11e+06 M⁻¹ s⁻¹.
In turn, B6 gave a Kd of 33.1 nM, a koff of 0.0244 s⁻¹ and a kon of 737000 M⁻¹ s⁻¹.
The like results for B7 were, in that order, 146 nM, 0.0981 s⁻¹ and 673000 M⁻¹ s⁻¹.
The molecule B8 registered a Kd of 110 nM, a koff of 0.0525 s⁻¹ and a kon of 478000 M⁻¹ s⁻¹.
The like results for B9 were, in that order, 129 nM, 0.0865 s⁻¹ and 671000 M⁻¹ s⁻¹.
The like results for B10 were, in that order, 17.9 nM, 0.0211 s⁻¹ and 1.18e+06 M⁻¹ s⁻¹.
The like results for B11 were, in that order, 104 nM, 0.109 s⁻¹ and 1.05e+06 M⁻¹ s⁻¹.
With B12, the Kd amounted to 22.5 nM, the koff was 0.018 s⁻¹ and the kon was found to be 799000 M⁻¹ s⁻¹.
The like results for B13 were, in that order, 80.7 nM, 0.0455 s⁻¹ and 564000 M⁻¹ s⁻¹.
B14 displayed a Kd of 57.8 nM, a koff of 0.056 s⁻¹ and a kon of 970000 M⁻¹ s⁻¹.
The like results for B15 were, in that order, 24.8 nM, 0.0175 s⁻¹ and 705000 M⁻¹ s⁻¹.
On to B16, for which the Kd turned out to be 59.1 nM, the koff was found to be 0.0573 s⁻¹ and the kon came to 969000 M⁻¹ s⁻¹.
The like results for B17 were, in that order, 28.7 nM, 0.0289 s⁻¹ and 1.01e+06 M⁻¹ s⁻¹.
With B18, the Kd came to 9.06 nM, the koff turned out to be 0.0136 s⁻¹ and the kon stood at 1.5e+06 M⁻¹ s⁻¹.

The next test shares this target. Description: BLI, ratio to ΔB7-H6_wt. Background: BLI is a label-free optical method that tracks binding on a fibre tip over time.
Consider B1, for which the KD improvement compared to ΔB7-H6 wt was found to be 4.9 fold, the x-fold KD improvement was 4.9 fold and the x-fold Koff improvement worked out at 3 fold.
Regarding B2, the KD improvement compared to ΔB7-H6 wt is 10.5 fold, the x-fold KD improvement was determined as 10.5 fold and the x-fold Koff improvement worked out at 5.7 fold.
Regarding B3, the KD improvement compared to ΔB7-H6 wt was 27.4 fold, the x-fold KD improvement was 27.5 fold and the x-fold Koff improvement turned out to be 16.1 fold.
With B4, the KD improvement compared to ΔB7-H6 wt was 2.8 fold, the x-fold KD improvement worked out at 2.8 fold and the x-fold Koff improvement turned out to be 1.7 fold.
In the case of B5, the KD improvement compared to ΔB7-H6 wt was 10.5 fold, the x-fold KD improvement is 10.5 fold and the x-fold Koff improvement was 3.9 fold.
As to B6, the KD improvement compared to ΔB7-H6 wt was determined as 12.4 fold, the x-fold KD improvement was 12.4 fold and the x-fold Koff improvement worked out at 6.9 fold.
Take B7: the KD improvement compared to ΔB7-H6 wt is 2.8 fold, the x-fold KD improvement is 2.8 fold and the x-fold Koff improvement came out at 1.7 fold.
Regarding B8, the KD improvement compared to ΔB7-H6 wt was found to be 3.7 fold, the x-fold KD improvement amounted to 3.7 fold and the x-fold Koff improvement was found to be 3.2 fold.
As for B9, the KD improvement compared to ΔB7-H6 wt was 3.2 fold, the x-fold KD improvement worked out at 3.2 fold and the x-fold Koff improvement was 1.9 fold.
As for B10, the KD improvement compared to ΔB7-H6 wt is 22.8 fold, the x-fold KD improvement was 22.8 fold and the x-fold Koff improvement was 8 fold.
For the molecule B11, the KD improvement compared to ΔB7-H6 wt came to 3.9 fold, the x-fold KD improvement was found to be 3.9 fold and the x-fold Koff improvement came out at 1.5 fold.
As to B12, the KD improvement compared to ΔB7-H6 wt was determined as 18.2 fold, the x-fold KD improvement was 18.2 fold and the x-fold Koff improvement worked out at 9.3 fold.
On to B13, for which the KD improvement compared to ΔB7-H6 wt came out at 5.1 fold, the x-fold KD improvement was found to be 5.1 fold and the x-fold Koff improvement was found to be 3.7 fold.
Consider B14, for which the KD improvement compared to ΔB7-H6 wt was 7.1 fold, the x-fold KD improvement stood at 7.1 fold and the x-fold Koff improvement was 3 fold.
With B15, the KD improvement compared to ΔB7-H6 wt turned out to be 16.5 fold, the x-fold KD improvement amounted to 16.5 fold and the x-fold Koff improvement came to 9.6 fold.
Take B16: the KD improvement compared to ΔB7-H6 wt worked out at 6.9 fold, the x-fold KD improvement stood at 6.9 fold and the x-fold Koff improvement came to 2.9 fold.
Turning to B17, the KD improvement compared to ΔB7-H6 wt came out at 14.3 fold, the x-fold KD improvement stood at 14.3 fold and the x-fold Koff improvement stood at 5.8 fold.
Consider B18, for which the KD improvement compared to ΔB7-H6 wt turned out to be 45.1 fold, the x-fold KD improvement came to 45.1 fold and the x-fold Koff improvement worked out at 12.4 fold.
